Each block holds one binder with its values, some of them ahead of it.
Tests used:
[1] = molecular target: T1, Myc-human Hsp90beta (human, UniProt P08238 1-724); experiment: anti-Flag co-immunoprecipitation from cotransfected HEK293T, western blot anti-myc
T1 construct: also called myc-Hsp90beta; myc-tagged Hsp90beta; not shown: N-terminal myc tag of pCMV-3Tag2

[2] = molecular target: T1, Myc-human Hsp90beta; experiment: anti-Flag co-immunoprecipitation from cotransfected HEK293T, western blot anti-myc (FIG. 2C)

T1 sequence (P08238 whole entry): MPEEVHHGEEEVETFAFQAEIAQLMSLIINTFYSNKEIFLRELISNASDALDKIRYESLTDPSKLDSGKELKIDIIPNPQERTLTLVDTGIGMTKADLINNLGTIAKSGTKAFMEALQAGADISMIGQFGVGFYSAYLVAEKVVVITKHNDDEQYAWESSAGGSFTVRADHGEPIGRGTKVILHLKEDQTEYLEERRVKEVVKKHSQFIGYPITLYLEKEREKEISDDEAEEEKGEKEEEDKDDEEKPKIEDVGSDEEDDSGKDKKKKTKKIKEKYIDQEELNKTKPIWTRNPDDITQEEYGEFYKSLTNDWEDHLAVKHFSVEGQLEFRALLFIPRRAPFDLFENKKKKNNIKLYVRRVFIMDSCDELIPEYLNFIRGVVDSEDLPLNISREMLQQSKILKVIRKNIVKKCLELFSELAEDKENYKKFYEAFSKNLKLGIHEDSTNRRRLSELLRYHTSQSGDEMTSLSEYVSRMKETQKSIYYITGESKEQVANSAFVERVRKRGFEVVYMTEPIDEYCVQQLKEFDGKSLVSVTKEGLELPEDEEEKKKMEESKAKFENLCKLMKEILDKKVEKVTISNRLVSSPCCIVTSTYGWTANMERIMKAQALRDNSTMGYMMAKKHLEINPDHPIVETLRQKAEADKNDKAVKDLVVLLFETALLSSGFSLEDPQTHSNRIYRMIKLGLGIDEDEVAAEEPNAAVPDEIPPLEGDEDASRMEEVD

binding result [1]: no binding
B1: Flag-tagged rat APOBEC1 (enzyme, UniProt P38483 1-229, looked up)
chain: MSSETGPVAVDPTLRRRIEPHEFEVFFDPRELRKETCLLYEINWGGRHSIWRHTSQNTNKHVEVNFIEKFTTERYFCPNTRCSITWFLSWSPCGECSRAITEFLSRYPHVTLFIYIARLYHHADPRNRQGLRDLISSGVTIQIMTEQESGYCWRNFVNYSPSNEAHWPRYPHLWVRLYVLELYCIILGLPPCLNILRRKQPQLTFFTIALQSCHYQRLPPHILWATGLK
notes: also called A1; not shown: N-terminal Flag tag (annealed oligonucleotides AO1 and AO2)

binding result [2]: no binding
B2: AID-APOBEC2 chimera #1 (enzyme)
chain: MDSLLMNRRKFLYQFKNVEYSSGRNKTFLCYVVEAQGKGGQVQASRGYLEDEHAAELLFLRYISDWDLDPGRCYRVTWFTSWSPCYDCARHVADFLRGNPNLSLRIFTARLYFCEDRKAEPEGLRRLHRAGVQIAIMTFKDYFYCWNTFVENHERTFKAWEGLHENSVRLSRQLRRILLPLYEVDDLRDAFRTLGL
notes: range 60-96; Flag-tagged in the HEK293T co-immunoprecipitation; also called AID-A2 #1; not shown: its end of the chain and its l

binding result [1]: no binding
B3: Flag-tagged APOBEC2 (enzyme, UniProt Q9Y235 1-224, looked up)
chain: MAQKEEAAVATEAASQNGEDLENLDDPEKLKELIELPPFEIVTGERLPANFFKFQFRNVEYSSGRNKTFLCYVVEAQGKGGQVQASRGYLEDEHAAAHAEEAFFNTILPAFDPALRYNVTWYVSSSPCAACADRIIKTLSKTKNLRLLILVGRLFMWEEPEIQAALKKLKEAGCKLRIMKPQDFEYVWQNFVEQEEGESKAFQPWEDIQENFLYYEEKLADILK
notes: also called A2; not shown: N-terminal Flag tag (annealed oligonucleotides AO1 and AO2)

— patent US20110237560A1 (published 2011)
